Molecular target: GST-TFIIB fusion protein (UniProt Q00403)
Assay: pull-down

Chain of UniProt Q00403 (Q00403 whole entry, the tested form may be a part): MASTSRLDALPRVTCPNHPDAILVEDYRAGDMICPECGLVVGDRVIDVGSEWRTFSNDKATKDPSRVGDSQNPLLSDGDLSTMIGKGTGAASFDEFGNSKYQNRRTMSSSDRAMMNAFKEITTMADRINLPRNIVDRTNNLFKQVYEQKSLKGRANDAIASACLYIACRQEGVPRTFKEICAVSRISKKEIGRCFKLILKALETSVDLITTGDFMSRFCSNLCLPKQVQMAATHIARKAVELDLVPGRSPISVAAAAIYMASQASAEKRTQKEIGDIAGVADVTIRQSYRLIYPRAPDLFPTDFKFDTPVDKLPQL

Substance	percent of input precipitated
35S-IR2P(78-397)-NH (domain or fragment)	12 % of input
35S-IR2P(78-438)-NH (domain or fragment)	13 % of input
